Measured values published in article PMC10503714.

Molecular target: stressed NISTmAb monoclonal antibody
Assay: AUC; sedimentation velocity at 50,000 rpm and 20°C; c(s) analysis in SEDFIT, by command line operation and repeated by manual operation on the same data; stressed, partially denatured sample

percent of signal in higher aggregates (command line analysis): 51.8%
percent of signal in higher aggregates (manual analysis): 51.7%
percent of signal in the dimer peak: 12.5%
stoichiometry N: 2
Substance: stressed NISTmAb monoclonal antibody
